Results from the supplement of paper PMC9233669.
Variants at the floor of the assay were thinned out.

Tests used:
biotinyl-Ile-oxazolone = assay: self-aminoacylation, catalytic enhancement (BIO) (fold over background); higher = more active; k-Seq, kA / k0A0; sequences stand for … in GGGAAUGGAUCCACAUCUACGAAUUC…UUCACUGCAGACUUGACGAAGCUG
Method in brief: (§1)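 Working in 50 μL HEPES/NaCl/KCl/MgCl2/CaCl2 buffer with 5% acetonitrile at pH 6.9–7.0, mutagenized RNA pools (0.43 μM; 21-nt variable region) were reacted with 2–1250 μM of each biotinyl-aminoacyl-oxazolone for 90 minutes at room temperature. Streptavidin capture followed, with quantification by triplicate qPCR and Illumina sequencing. Catalytic enhancement is reported as median kA over the uncatalyzed rate, the low-activity peak of a bimodal Gaussian fit to the data.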

biotinyl-Trp-oxazolone = assay: self-aminoacylation, catalytic enhancement (BWO) (fold over background); higher = more active; k-Seq, kA / k0A0; sequences stand for … in GGGAAUGGAUCCACAUCUACGAAUUC…UUCACUGCAGACUUGACGAAGCUG
Method in brief: as §1

biotinyl-Met-oxazolone = assay: self-aminoacylation, catalytic enhancement (BMO) (fold over background); higher = more active; k-Seq, kA / k0A0; sequences stand for … in GGGAAUGGAUCCACAUCUACGAAUUC…UUCACUGCAGACUUGACGAAGCUG
Method in brief: as §1

biotinyl-Phe-oxazolone = assay: self-aminoacylation, catalytic enhancement (BFO) (fold over background); higher = more active; k-Seq, kA / k0A0; sequences stand for … in GGGAAUGGAUCCACAUCUACGAAUUC…UUCACUGCAGACUUGACGAAGCUG
Method in brief: as §1

biotinyl-Leu-oxazolone = assay: self-aminoacylation, catalytic enhancement (BLO) (fold over background); higher = more active; k-Seq, kA / k0A0; sequences stand for … in GGGAAUGGAUCCACAUCUACGAAUUC…UUCACUGCAGACUUGACGAAGCUG
Method in brief: as §1

biotinyl-Val-oxazolone = assay: self-aminoacylation, catalytic enhancement (BVO) (fold over background); higher = more active; k-Seq, kA / k0A0; sequences stand for … in GGGAAUGGAUCCACAUCUACGAAUUC…UUCACUGCAGACUUGACGAAGCUG
Method in brief: as §1

Sequence | self-aminoacylation (biotinyl-Ile-oxazolone) | self-aminoacylation (biotinyl-Trp-oxazolone) | self-aminoacylation (biotinyl-Met-oxazolone) | self-aminoacylation (biotinyl-Phe-oxazolone) | self-aminoacylation (biotinyl-Leu-oxazolone) | self-aminoacylation (biotinyl-Val-oxazolone)
AUUGACCUGGUCAUCGAGUGA [Fam2.1 aminoacylation ribozyme variant] | 3.66 | 9.68 | 6.92 | 8.3 | 7.86 | 4.1
AGUCACGUAGGUCAUCGGGUG [Fam2.2 aminoacylation ribozyme variant] | 3.96 | 6.71 | 5.11 | 52.9 | 5.72 | 5.07
AAGUCUGCUAAUCGUCGCAAG [Fam3.1 aminoacylation ribozyme variant] | 0.996 | 1.94 | 1.36 | 4.49 | 1.15 | 1.01
AUUCAGCUAGGUCAUCAGGUG [Fam2.2 aminoacylation ribozyme variant] | 1.63 | 2.09 | 2.38 | 8.1 | 2.39 | 2.04
CUUACUCUGGUCAUCGAGUGA [Fam2.1 aminoacylation ribozyme variant] | 2.54 | 5.52 | 4.98 | 14.2 | 5.28 | 3.07
ACUACCCUGGUCAUCGUGUGA [Fam2.1 aminoacylation ribozyme variant] | 1.58 | 3.83 | 4.14 | 24.4 | 3.39 | 2.33
CUACUUCAAACAAUGGGUCUC [Fam1A.1 aminoacylation ribozyme variant] | 0.688 | 0.428 | 0.609 | 0.715 | 0.569 | 0.658
CUACUUCAAACAAACGGUCGG [Fam1A.1 aminoacylation ribozyme variant] | 1.05 | 0.585 | 0.726 | 0.694 | 0.809 | 0.944
AUUACCAUGGUCAUCUAGUGA [Fam2.1 aminoacylation ribozyme variant] | 5.41 | 15.6 | 11.1 | 59.9 | 11.1 | 5.38
ACUCACCUAGGUCAACGGGUG [Fam2.2 aminoacylation ribozyme variant] | 1.94 | 3.14 | 2.67 | 8.54 | 2.29 | 2.22
AGGUUUGCUAAUAGACGCAAG [Fam3.1 aminoacylation ribozyme variant] | 0.608 | 0.609 | 0.529 | 0.835 | 0.594 | 0.752
AUUCACUUAGGUUAUCGGGUG [Fam2.2 aminoacylation ribozyme variant] | 2.37 | 3.68 | 3.33 | 18.6 | 4.03 | 2.5
AAUCACCUACGUCAUCGGGUG [Fam2.2 aminoacylation ribozyme variant] | 4.41 | 7.27 | 6.56 | 53 | 6.01 | 3.79
CCACACUUAAAGCACUCGGUC [Fam1B.1 aminoacylation ribozyme variant] | 1.16 | 0.732 | 0.856 | 0.788 | 0.924 | 1.11
CUUCACUUCAAGCAAUCGGUC [Fam1B.1 aminoacylation ribozyme variant] | 1.05 | 20.9 | 1.16 | 46.4 | 1.55 | 1.15
AAUUUUGAUAAUAGUCGCAAG [Fam3.1 aminoacylation ribozyme variant] | 1.7 | 1.37 | 1.66 | 2.09 | 1.64 | 1.39
AUUCACCCAGGUAAUCGGGUG [Fam2.2 aminoacylation ribozyme variant] | 2.26 | 2.46 | 3.1 | 18.6 | 3.88 | 2.14
AUGUUUGGUAAUAGUCGCAAG [Fam3.1 aminoacylation ribozyme variant] | 1.92 | 2.15 | 1.79 | 3.16 | 1.84 | 1.51
AAGUUUGCUAAUAGUCGUUAG [Fam3.1 aminoacylation ribozyme variant] | 0.822 | 1.05 | 0.676 | 2.27 | 0.801 | 1.07
AAGUUUACUAAUAGUCGCUAG [Fam3.1 aminoacylation ribozyme variant] | 1.39 | 1.69 | 1.29 | 2.43 | 1.26 | 1.23
AUUACCGUGGUCAUCGAGAGA [Fam2.1 aminoacylation ribozyme variant] | 1.11 | 0.794 | 0.605 | 0.92 | 0.723 | 1.18
CCACACGUCAAGCAAUAGGUC [Fam1B.1 aminoacylation ribozyme variant] | 0.655 | 0.587 | 0.765 | 1.1 | 0.652 | 0.831
CUUCUUCAAAAAAUCGGUCUG [Fam1A.1 aminoacylation ribozyme variant] | 1 | 5.39 | 0.902 | 6.58 | 1.02 | 0.851
AUUCACCUUUGUCAUCGGGUG [Fam2.2 aminoacylation ribozyme variant] | 3.14 | 4.62 | 4.43 | 25.4 | 5.41 | 3.11
AUUCACCUAGCUCAUCCGGUG [Fam2.2 aminoacylation ribozyme variant] | 2.45 | 3.68 | 3.18 | 16.5 | 3.7 | 2.51
